{"source": "patent US20130121989", "proteins": {"B1": {"name": "GFP-Mec17p (Tetrahymena MEC-17 tagged with GFP, crude enriched soluble fraction from transgenic Tetrahymena) (protein)", "chain": "MFKNQLLSLSLRIQKLRLCRQGNQLKVLQKSINQLLFKTQSIDQILQYLQQKKKTHQSILENQNQHIHSIGLVSQLTNQKINKQKNQKAMEFNFIINKLVQLDQQGLGVYIPRASRSKVSSQQEQQLGQVLNTMGERSAIAQGLKQVITNYDKVQGTDQRVYIVAEGRTCQGFLKVGQKNLFYRDMMGNIKEIKPLCVLDFYVHESCQRQGYGKLLFEYMIQCEQTSPEKLAYDRPSPKLIAFLKKHYNLVKYIAQNNNFVVFDQYFRSDASSQNKQNQNTRSYSQPYSDYSSQIPTNYPQQQQQQSNSKSYPYKQENNIDLMQHSSSRNNKEFLNAGRAILSKEEIYKKDNLSQQNIENTLNNINNSQYSTKSQQQQQYQKDYQLDKYENNWGADKNIKKPPFPGQDRQLDKIQQKIQQTERELDVVNQQIIKQRQNLSQDPLTQNHRAQNVYNTNQFGTSPWAQTGFNYYSTSSSNYGNHYTYYKK"}, "B2": {"name": "GST-MmMEC-17 (recombinant murine MEC-17 expressed in E. coli as a GST fusion) (protein)", "chain": "MEFPFDVDALFPERITVLDQHLRPPARRPGTTTPARVDLQQQIMTIVDELGKASAKAQHLPAPITSALRMQSNRHVIYILKDTSARPAGKGAIIGFLKVGYKKLFVLDDREAHNEVEPLCILDFYIHESVQRHGHGRELFQHMLQKERVEPHQLAIDRPSPKLLKFLNKHYNLETTVPQVNNFVIFEGFFAHQHRPPTSSLRATRHSRAAVADPIPAAPARKLPPKRAEGDIKPYSSSDREFLKVAVEPPWPLNRAPRRATPPAHPPPRSSSLGNSPDRGPLRPFVPEQELLRSLRLCPPHPTARLLLATDPGGSPAQRRRTRGTPWGLVAQSCHYSRHGGFNTSFLGTGNQERKQGEQEAEDRSASEDRVLLLDGSGEEPTQTGAPRAQAPPPQSWTVGGDIMNARVIRNLQERRSTRPW"}}, "key": {"[1]": {"target": "T1, Tetrahymena α-tubulin with non-acetylated K40, from the MEC17-KO strain (as axonemes or as purified tubulin), P41351", "T1 chain": "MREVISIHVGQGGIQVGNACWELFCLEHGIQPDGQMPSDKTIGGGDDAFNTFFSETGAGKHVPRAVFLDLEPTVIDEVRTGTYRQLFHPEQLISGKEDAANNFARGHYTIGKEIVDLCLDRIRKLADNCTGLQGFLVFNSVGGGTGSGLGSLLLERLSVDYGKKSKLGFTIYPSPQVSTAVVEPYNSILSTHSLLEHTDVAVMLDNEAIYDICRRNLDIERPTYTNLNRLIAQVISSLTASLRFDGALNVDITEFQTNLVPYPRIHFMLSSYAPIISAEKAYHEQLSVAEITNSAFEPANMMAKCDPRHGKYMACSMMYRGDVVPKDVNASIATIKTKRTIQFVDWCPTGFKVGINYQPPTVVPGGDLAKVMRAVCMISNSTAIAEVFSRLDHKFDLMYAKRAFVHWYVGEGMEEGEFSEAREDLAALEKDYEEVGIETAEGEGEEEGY"}, "[2]": {"target": "T2, Tetrahymena K40R α-tubulin (axonemes from a K40R Tetrahymena mutant), P41351", "T2 chain": "T1 chain with K40R"}}, "note": "Substitutions are numbered along the chain they refer to."}
{"protein": "B1", "values": [{"measurement": "in vitro tubulin acetylation (K40 αTAT) assay on MEC17-KO axonemes, western blot with 6-11 B-1 mAb", "setting": "[1]", "value": "A crude GFP-Mec17p-enriched fraction (obtained from transgenic Tetrahymena) had K40 αTAT activity in vitro that was dependent on the presence of acetyl-CoA"}]}
{"protein": "B2", "values": [{"measurement": "in vitro acetylation of K40 axonemes, western blot with pan acetyl-K antibodies", "setting": "[1]", "value": "GST-MmMEC-17 modified K40 axonemes"}, {"measurement": "in vitro tubulin acetylation (αTAT) assay on MEC17-KO axonemes with acetyl-CoA, western blot with 6-11 B-1 mAb", "setting": "[1]", "value": "GST-MmMEC-17, but not GST, mediated a robust αTAT activity in vitro"}, {"measurement": "in vitro acetylation of R40 (K40R) axonemes, western blot with pan acetyl-K antibodies", "setting": "[2]", "value": "failed to acetylate R40 axonemes"}]}
